Blank lines part the entries; values can stand above or below the sequence they belong to.
Experiments:
HLA-B*15:17 = assay: IEDB peptide-MHC binding, purified MHC/competitive/fluorescence; filed as Kd, often an IC50 or EC50 that approximates it; ≥ and ≤ were set here for values at or beyond the usual limits of such assays
HLA-A*68:02 = assay: IEDB peptide-MHC binding, purified MHC/direct/fluorescence; filed as Kd, often an IC50 or EC50 that approximates it; ≥ and ≤ were set here for values at or beyond the usual limits of such assays
HLA-A*02:01 [1] = assay: as above
HLA-B*57:01 = assay: as above
HLA-A*02:16 = assay: as above
HLA-A*03:01 = assay: as above
HLA-B*18:01 = assay: as above
HLA-A*02:12 = assay: as above
HLA-B*46:01 = assay: as above
HLA-A*02:03 = assay: as above
HLA-B*27:03 = assay: as above
HLA-A*02:11 = assay: as above
HLA-B*15:01 [2] = assay: as above
HLA-B*51:01 = assay: as above
HLA-A*02:19 = assay: as above
HLA-A*69:01 [3] = assay: as above
HLA-B*48:01 = assay: IEDB peptide-MHC binding, purified MHC/competitive/fluorescence; filed as Kd, often an IC50 or EC50 that approximates it; ≥ and ≤ were set here for values at or beyond the usual limits of such assays
HLA-B*07:02 = assay: as above
HLA-C*07:02 = assay: IEDB peptide-MHC binding, purified MHC/direct/fluorescence; filed as Kd, often an IC50 or EC50 that approximates it; ≥ and ≤ were set here for values at or beyond the usual limits of such assays; conditions: source organism: Entamoeba histolytica HM-1:IMSS
HLA-A*26:01 = assay: as above
HLA-A*24:03 = assay: as above
HLA-B*39:01 [4] = assay: as above
HLA-A*32:01 = assay: IEDB peptide-MHC binding, purified MHC/competitive/radioactivity; filed as Kd, often an IC50 or EC50 that approximates it; ≥ and ≤ were set here for values at or beyond the usual limits of such assays; conditions: source organism: Mammarenavirus machupoense
HLA-A*30:01 = assay: as above; conditions: source organism: Mammarenavirus machupoense
HLA-A*29:02 = assay: as above; conditions: source organism: Mammarenavirus machupoense
HLA-A*30:02 = assay: as above; conditions: source organism: Mammarenavirus machupoense
HLA-A*01:01 [5] = assay: as above; conditions: source organism: Mammarenavirus machupoense
HLA-A*02:01 [6] = assay: IEDB peptide-MHC binding, purified MHC/competitive/fluorescence; filed as Kd, often an IC50 or EC50 that approximates it; ≥ and ≤ were set here for values at or beyond the usual limits of such assays; conditions: source organism: Orthomarburgvirus marburgense
HLA-A*02:06 = assay: as above; conditions: source organism: Orthomarburgvirus marburgense
HLA-A*69:01 [7] = assay: as above; conditions: source organism: Orthomarburgvirus marburgense
HLA-A*31:01 = assay: IEDB peptide-MHC binding, purified MHC/direct/fluorescence; filed as Kd, often an IC50 or EC50 that approximates it; ≥ and ≤ were set here for values at or beyond the usual limits of such assays; conditions: source organism: Marburg virus - Musoke, Kenya, 1980
HLA-A*11:01 = assay: as above; conditions: source organism: Marburg virus - Musoke, Kenya, 1980
HLA-B*08:02 = assay: as above; conditions: source organism: Orthomarburgvirus marburgense
HLA-B*58:01 = assay: as above; conditions: source organism: Marburg virus - Musoke, Kenya, 1980
HLA-B*27:05 = assay: as above; conditions: source organism: Marburg virus - Musoke, Kenya, 1980
HLA-B*40:01 = assay: as above; conditions: source organism: Marburg virus - Musoke, Kenya, 1980
HLA-A*01:01 [8] = assay: as above; conditions: source organism: Marburg virus - Musoke, Kenya, 1980
HLA-B*08:01 = assay: IEDB peptide-MHC binding, purified MHC/competitive/fluorescence; filed as Kd, often an IC50 or EC50 that approximates it; ≥ and ≤ were set here for values at or beyond the usual limits of such assays; conditions: source organism: Escherichia coli O157:H7 str. EDL933
HLA-B*15:01 [9] = assay: as above; conditions: source organism: Escherichia coli O157:H7 str. EDL933
HLA-B*39:01 [10] = assay: as above; conditions: source organism: Escherichia coli O157:H7 str. EDL933
[11] = source organism: Rickettsia sibirica 246
[12] = source organism: Salmonella enterica subsp. enterica serovar Typhimurium
[13] = source organism: Mammarenavirus machupoense
[14] = source organism: Orthomarburgvirus marburgense
[15] = source organism: Marburg virus - Musoke, Kenya, 1980
[16] = source organism: Encephalitozoon cuniculi GB-M1

Sequence: APVESMALF
- Kd (HLA-B*15:17; [11]): 15.1 µM
- Kd (HLA-A*68:02; [11]): ≥ 20 µM
- Kd (HLA-A*02:01 [1]; [11]): ≥ 20 µM
- Kd (HLA-B*57:01; [11]): ≥ 20 µM
- Kd (HLA-A*02:16; [11]): ≥ 20 µM
- Kd (HLA-A*03:01; [11]): ≥ 20 µM
- Kd (HLA-B*18:01; [11]): ≥ 20 µM
- Kd (HLA-A*02:12; [11]): ≥ 20 µM
- Kd (HLA-B*46:01; [11]): ≥ 20 µM
- Kd (HLA-A*02:03; [11]): ≥ 20 µM
- Kd (HLA-B*27:03; [11]): ≥ 20 µM
- Kd (HLA-A*02:11; [11]): ≥ 20 µM
- Kd (HLA-B*15:01 [2]; [11]): ≥ 20 µM
- Kd (HLA-B*51:01; [11]): ≥ 20 µM
- Kd (HLA-A*02:19; [11]): ≥ 20 µM
- Kd (HLA-A*69:01 [3]; [11]): ≥ 20 µM

- Kd (HLA-B*48:01; source organism: Escherichia coli O139:H28 str. E24377A): ≥ 20 µM
Sequence: AQELVGHQL

Sequence: FPSSSYRRPV
- Kd (HLA-B*07:02; source organism: Influenza A virus (A/Fort Monmouth/1/1947-mouse adapted(H1N1))): 0.0016 µM

Sequence: FQFTLHWEL
- Kd (HLA-B*48:01; source organism: Entamoeba histolytica HM-1:IMSS): 0.726 µM
- Kd (HLA-C*07:02): 2.05 µM

Sequence: GQAARDKHL
- Kd (HLA-B*48:01; source organism: Burkholderia vietnamiensis G4): ≥ 20 µM

Sequence: LAMLVLHQV
- Kd (HLA-B*57:01; [12]): ≥ 20 µM
- Kd (HLA-A*03:01; [12]): ≥ 20 µM
- Kd (HLA-B*18:01; [12]): ≥ 20 µM
- Kd (HLA-B*46:01; [12]): ≥ 20 µM
- Kd (HLA-A*26:01; [12]): ≥ 20 µM
- Kd (HLA-B*27:03; [12]): ≥ 20 µM
- Kd (HLA-A*24:03; [12]): ≥ 20 µM
- Kd (HLA-B*15:01 [2]; [12]): ≥ 20 µM
- Kd (HLA-B*39:01 [4]; [12]): ≥ 20 µM
- Kd (HLA-B*51:01; [12]): 0.416 µM

Sequence: LITEQFLCY
- Kd (HLA-A*32:01): ≥ 25 µM
- Kd (HLA-A*30:01): 6.33 µM
- Kd (HLA-A*29:02): 0.00132 µM
- Kd (HLA-A*30:02): 1.86 µM
- Kd (HLA-A*01:01 [5]): 0.0647 µM
- Kd (HLA-A*68:02; [13]): ≥ 20 µM
- Kd (HLA-A*02:01 [1]; [13]): ≥ 20 µM
- Kd (HLA-B*57:01; [13]): ≥ 20 µM
- Kd (HLA-A*02:16; [13]): ≥ 20 µM
- Kd (HLA-B*18:01; [13]): ≥ 20 µM
- Kd (HLA-A*02:12; [13]): ≥ 20 µM
- Kd (HLA-A*26:01; [13]): ≥ 20 µM
- Kd (HLA-A*02:03; [13]): ≥ 20 µM
- Kd (HLA-B*27:03; [13]): ≥ 20 µM
- Kd (HLA-A*02:11; [13]): ≥ 20 µM
- Kd (HLA-B*39:01 [4]; [13]): ≥ 20 µM
- Kd (HLA-B*51:01; [13]): ≥ 20 µM
- Kd (HLA-A*02:19; [13]): ≥ 20 µM
- Kd (HLA-A*69:01 [3]; [13]): ≥ 20 µM

Sequence: LYKTIVNIW
- Kd (HLA-A*02:01 [6]): 0.0509 µM
- Kd (HLA-B*15:17; [14]): ≥ 20 µM
- Kd (HLA-A*02:06): 0.11 µM
- Kd (HLA-B*48:01; [14]): ≥ 20 µM
- Kd (HLA-A*69:01 [7]): 1.58 µM
- Kd (HLA-A*31:01): ≥ 20 µM
- Kd (HLA-A*11:01): ≥ 20 µM
- Kd (HLA-B*57:01; [15]): ≥ 20 µM
- Kd (HLA-B*08:02): ≥ 20 µM
- Kd (HLA-B*58:01): ≥ 20 µM
- Kd (HLA-A*03:01; [15]): ≥ 20 µM
- Kd (HLA-B*18:01; [15]): ≥ 20 µM
- Kd (HLA-B*27:05): ≥ 20 µM
- Kd (HLA-B*46:01; [15]): ≥ 20 µM
- Kd (HLA-A*26:01; [14]): ≥ 20 µM
- Kd (HLA-B*40:01): ≥ 20 µM
- Kd (HLA-A*24:03; [15]): 0.16 µM
- Kd (HLA-A*01:01 [8]): ≥ 20 µM
- Kd (HLA-B*15:01 [2]; [15]): ≥ 20 µM
- Kd (HLA-B*39:01 [4]; [14]): ≥ 20 µM

- Kd (HLA-A*02:01 [1]; [16]): ≥ 20 µM
- Kd (HLA-B*57:01; [16]): ≥ 20 µM
- Kd (HLA-A*02:16; [16]): ≥ 20 µM
- Kd (HLA-A*03:01; [16]): ≥ 20 µM
- Kd (HLA-B*18:01; [16]): ≥ 20 µM
- Kd (HLA-A*02:12; [16]): ≥ 20 µM
- Kd (HLA-B*46:01; [16]): ≥ 20 µM
- Kd (HLA-A*26:01; [16]): ≥ 20 µM
- Kd (HLA-A*02:03; [16]): ≥ 20 µM
- Kd (HLA-B*27:03; [16]): ≥ 20 µM
- Kd (HLA-A*02:11; [16]): ≥ 20 µM
- Kd (HLA-A*24:03; [16]): ≥ 20 µM
- Kd (HLA-B*15:01 [2]; [16]): ≥ 20 µM
- Kd (HLA-B*51:01; [16]): 0.074 µM
- Kd (HLA-A*02:19; [16]): ≥ 20 µM
Sequence: MPFDPSELV

- Kd (HLA-B*07:02; source organism: Escherichia coli O157:H7 str. EDL933): 0.007 µM
- Kd (HLA-B*08:01): 0.197 µM
- Kd (HLA-B*15:01 [9]): 0.08 µM
- Kd (HLA-B*39:01 [10]): 0.061 µM
Sequence: MQRSGMLSL

Source: the Immune Epitope Database (IEDB)
